# Reference: publication PMC6804253, “Predicting and Experimentally Validating Hot-Spot Residues at Protein–Protein Interfaces” (ACS Chemical Biology, 2019)
# Substitutions are numbered along the chain they refer to.
# B1: 2PCC DA34A (protein, UniProt P00431 68-361, looked up, variant D34A)
# Cytochrome c peroxidase, …: TTPLVHVASVEKGRSYEDFQKVYNAIALKLREDAEYDNYIGYGPVLVRLAWHTSGTWDKHDNTGGSYGGTYRFKKEFNDPSNAGLQNGFKFLEPIHKEFPWISSGDLFSLGGVTAVQEMQGPKIPWRCGRVDTPEDTTPDNGRLPDADKDADYVRTFFQRLNMNDREVVALMGAHALGKTHLKNSGYEGPWGAANNVFTNEFYLNLLNEDWKLEKNDANNEQWDSKSGYMMLPTDYSLIQDPKYLSIVKEYANDQDKFFKDFSKAFEKLLENGITFPKDAPSPFIFKTLEEQGL
# B2: 2PCC EA290A (protein, UniProt P00431 68-361, looked up, variant E290A)
# Cytochrome c peroxidase, …: B1 Cytochrome c peroxidase, … with A34D, E290A
# B3: 1A22 IB305A (protein, UniProt P10912 19-264, looked up, variant I105A)
# extracellular domain: FSGSEATAAILSRAPWSLQSVNPGLKTNSSKEPKFTKCRSPERETFSCHWTDEVHHGTKNLGPIQLFYTRRNTQEWTQEWKECPDYVSAGENSCYFNSSFTSIWAPYCIKLTSNGGTVDEKCFSVDEIVQPDPPIALNWTLLNVSLTGIHADIQVRWEAPRNADIQKGWMVLEYELQYKEVNETKWKMMDPILTTSVPVYSLKVDKEYEVRVRSKQRNSGNYGEFSEVLYVTLPQMSQFTCEEDFY
# modifications: extracellular domain
# B4: 1IAR EA19A (protein, UniProt P05112 25-153, looked up, variant E19A)
# Interleukin-4: HKCDITLQEIIKTLNSLTAQKTLCTELTVTDIFAASKNTTEKETFCRAATVLRQFYSHHEKDTRCLGATAQQFHRHKQLIRFLKRLDRNLWGLAGLNSCPVKEANQSTLENFLERLKTIMREKYSKCSS
# B5: 1IAR RA85A (protein, UniProt P05112 25-153, looked up, variant R85A)
# Interleukin-4: B4 Interleukin-4 with A19E, R85A
# B6: 1IAR RA81A (protein, UniProt P05112 25-153, looked up, variant R81A)
# Interleukin-4: B4 Interleukin-4 with A19E, R81A
# B7: 1IAR KA84A (protein, UniProt P05112 25-153, looked up, variant K84A)
# Interleukin-4: B4 Interleukin-4 with A19E, K84A
# B8: 1IAR KA77A (protein, UniProt P05112 25-153, looked up, variant K77A)
# Interleukin-4: B4 Interleukin-4 with A19E, K77A
# B9: 1EMV EA41A (protein, UniProt P13479 1-86, looked up, variant E41A)
# Colicin-E9 immunity protein: MELKHSISDYTEAEFLQLVTTICNADTSSEEELVKLVTHFAEMTEHPSGSDLIYYPKEGDDDSPSGIVNTVKQWRAANGKSGFKQG
# B10: 1EMV HA46A (protein, UniProt P13479 1-86, looked up, variant H46A)
# Colicin-E9 immunity protein: B9 Colicin-E9 immunity protein with A41E, H46A
# B11: 1EMV DA60A (protein, UniProt P13479 1-86, looked up, variant D60A)
# Colicin-E9 immunity protein: B9 Colicin-E9 immunity protein with A41E, D60A
# B12: 1EMV DA51A (protein, UniProt P13479 1-86, looked up, variant D51A)
# Colicin-E9 immunity protein: B9 Colicin-E9 immunity protein with A41E, D51A
# B13: 1A22 EB291A (protein, UniProt P10912 19-264, looked up, variant E91A)
# extracellular domain: B3 extracellular domain with E91A, A105I
# modifications: extracellular domain
# B14: 1JRH KI47A (protein, UniProt P15260 18-245, looked up, variant K47A)
# extracellular domain: EMGTADLGPSSVPTPTNVTIESYNMNPIVYWEYQIMPQVPVFTVEVANYGVKNSEWIDACINISHHYCNISDHVGDPSNSLWVRVKARVGQKESAYAKSEEFAVCRDGKIGPPKLDIRKEEKQIMIDIFHPSVFVNGDEQEVDYDPETTCYIRVYNVYVRMNGSEIQYKILTQKEDDCDEIQCQLAIPVSSLNSQYCVSAEGVLHVWGVTTEKSKEVCITIFNSSIKG
# modifications: extracellular domain
# B15: 1JRH KI52A (protein, UniProt P15260 18-245, looked up, variant K52A)
# extracellular domain: B14 extracellular domain with A47K, K52A
# modifications: extracellular domain
# B16: 1JRH RI84A (protein, UniProt P15260 18-245, looked up, variant R84A)
# extracellular domain: B14 extracellular domain with A47K, R84A
# modifications: extracellular domain
# B17: 1JRH KI98A (protein, UniProt P15260 18-245, looked up, variant K98A)
# extracellular domain: B14 extracellular domain with A47K, K98A
# modifications: extracellular domain
# B18: 1A4Y WA261A (protein, UniProt P13489 2-461, looked up, variant W261A)
# Ribonuclease inhibitor: SLDIQSLDIQCEELSDARWAELLPLLQQCQVVRLDDCGLTEARCKDISSALRVNPALAELNLRSNELGDVGVHCVLQGLQTPSCKIQKLSLQNCCLTGAGCGVLSSTLRTLPTLQELHLSDNLLGDAGLQLLCEGLLDPQCRLEKLQLEYCSLSAASCEPLASVLRAKPDFKELTVSNNDINEAGVRVLCQGLKDSPCQLEALKLESCGVTSDNCRDLCGIVASKASLRELALGSNKLGDVGMAELCPGLLHPSSRLRTLAIWECGITAKGCGDLCRVLRAKESLKELSLAGNELGDEGARLLCETLLEPGCQLESLWVKSCSFTAACCSHFSSVLAQNRFLLELQISNNRLEDAGVRELCQGLGQPGSVLRVLWLADCDVSDSSCSSLAATLLANHSLRELDLSNNCLGDAGILQLVESVRQPGCLLEQLVLYDIYWSEEMEDRLQALEKDKPSLRVIS
# B19: 1A4Y YA434A (protein, UniProt P13489 2-461, looked up, variant Y434A)
# Ribonuclease inhibitor: B18 Ribonuclease inhibitor with A261W, Y434A
# B20: 1A4Y WA375A (protein, UniProt P13489 2-461, looked up, variant W375A)
# Ribonuclease inhibitor: B18 Ribonuclease inhibitor with A261W, W375A
# B21: 1A4Y YA437A (protein, UniProt P13489 2-461, looked up, variant Y437A)
# Ribonuclease inhibitor: B18 Ribonuclease inhibitor with A261W, Y437A
# B22: 1A4Y WA263A (protein, UniProt P13489 2-461, looked up, variant W263A)
# Ribonuclease inhibitor: B18 Ribonuclease inhibitor with A261W, W263A
# B23: 1A4Y WA318A (protein, UniProt P13489 2-461, looked up, variant W318A)
# Ribonuclease inhibitor: B18 Ribonuclease inhibitor with A261W, W318A
# B24: 1A4Y IA459A (protein, UniProt P13489 2-461, looked up, variant I459A)
# Ribonuclease inhibitor: B18 Ribonuclease inhibitor with A261W, I459A
# B25: 1KTZ RA25A (protein, UniProt P10600 301-412, looked up, variant R25A)
# Transforming growth factor …: ALDTNYCFRNLEENCCVRPLYIDFAQDLGWKWVHEPKGYYANFCSGPCPYLRSADTTHSTVLGLYNTLNPEASASPCCVPQDLEPLTILYYVGRTPKVEQLSNMVVKSCKCS
# B26: 1KTZ RA94A (protein, UniProt P10600 301-412, looked up, variant R94A)
# Transforming growth factor …: B25 Transforming growth factor … with A25R, R94A
# Tested on: PPIs of the SKEMPI data set (by PDBID)
# Assay: SKEMPI experimental ΔΔG, single mutations to alanine
# Type: binding
# Conditions: Positive / Neutral / Negative by ΔΔG threshold 4.184 kJ/mol; ref SKEMPI
row,Molecule,sk_class (class of the SKEMPI experimental ΔΔG)
1,B1,Neutral (neutral (little effect) 4.184 kJ/mol < ΔΔG > −4.184 kJ/mol)
2,B2,Positive (positive (a hot residue) ΔΔG ≥ 4.184 kJ/mol)
3,B3,Neutral (neutral (little effect) 4.184 kJ/mol < ΔΔG > −4.184 kJ/mol)

# Same assay, conditions: class by the 4.184 kJ/mol threshold; r_group DERKH
row,Molecule,sk_class (class of the SKEMPI experimental ΔΔG)
1,B4,Neutral (neutral (little effect) 4.184 kJ/mol < ΔΔG > −4.184 kJ/mol)
2,B5,Neutral (neutral (little effect) 4.184 kJ/mol < ΔΔG > −4.184 kJ/mol)
3,B6,Neutral (neutral (little effect) 4.184 kJ/mol < ΔΔG > −4.184 kJ/mol)
4,B7,Neutral (neutral (little effect) 4.184 kJ/mol < ΔΔG > −4.184 kJ/mol)
5,B8,Neutral (neutral (little effect) 4.184 kJ/mol < ΔΔG > −4.184 kJ/mol)
6,B9,Positive (positive (a hot residue) ΔΔG ≥ 4.184 kJ/mol)
7,B10,Neutral (neutral (little effect) 4.184 kJ/mol < ΔΔG > −4.184 kJ/mol)
8,B11,Neutral (neutral (little effect) 4.184 kJ/mol < ΔΔG > −4.184 kJ/mol)
9,B12,Positive (positive (a hot residue) ΔΔG ≥ 4.184 kJ/mol)

# Same assay, conditions: class by ΔΔG threshold 4.184 kJ/mol; ref SKEMPI
row,Molecule,sk_class (class of the SKEMPI experimental ΔΔG)
1,B13,Neutral (neutral (little effect) 4.184 kJ/mol < ΔΔG > −4.184 kJ/mol)

# Same assay, conditions: class of the SKEMPI experimental ΔΔG
row,Molecule,sk_class
1,B14,Positive (positive (a hot residue) ΔΔG ≥ 4.184 kJ/mol)
2,B15,Positive (positive (a hot residue) ΔΔG ≥ 4.184 kJ/mol)
3,B16,Positive (positive (a hot residue) ΔΔG ≥ 4.184 kJ/mol)
4,B17,Neutral (neutral (little effect) 4.184 kJ/mol < ΔΔG > −4.184 kJ/mol)
5,B18,Neutral (neutral (little effect) 4.184 kJ/mol < ΔΔG > −4.184 kJ/mol)
6,B19,Positive (positive (a hot residue) ΔΔG ≥ 4.184 kJ/mol)
7,B20,Positive (positive (a hot residue) ΔΔG ≥ 4.184 kJ/mol)
8,B21,Neutral (neutral (little effect) 4.184 kJ/mol < ΔΔG > −4.184 kJ/mol)
9,B22,Positive (positive (a hot residue) ΔΔG ≥ 4.184 kJ/mol)
10,B23,Positive (positive (a hot residue) ΔΔG ≥ 4.184 kJ/mol)
11,B24,Neutral (neutral (little effect) 4.184 kJ/mol < ΔΔG > −4.184 kJ/mol)
12,B25,Positive (positive (a hot residue) ΔΔG ≥ 4.184 kJ/mol)
13,B26,Positive (positive (a hot residue) ΔΔG ≥ 4.184 kJ/mol)

# Tested on: PPIs of the SKEMPI data set (by PDBID)
# Assay: not given
# Conditions: sheet sortedByGroup, r_group DERKH; complex given by PDBID; ref SKEMPI; cited from earlier work
row,Molecule,"sk_ddG_kJ (SKEMPI experimental ΔΔG, single mutation to alanine) [kJ]"
1,B14,16.11
2,B15,15.86
3,B16,4.31
4,B17,2.80
5,B25,6.19
6,B26,12.05

# Same assay, conditions: single mutation to alanine in the complex of the given PDBID; ref SKEMPI; cited from earlier work
row,Molecule,"sk_ddG_kJ (SKEMPI experimental ΔΔG of binding, mutation to alanine) [kJ]"
1,B1,-3.81
2,B2,25.90
3,B3,0.54

# Same assay, conditions: single mutation to alanine, complex by PDBID; sheet sortedByGroup, r_group DERKH; ref SKEMPI; cited from earlier work
row,Molecule,"sk_ddG_kJ (SKEMPI experimental ΔΔG, mutation to alanine) [kJ]"
1,B4,-1.34
2,B5,1.80
3,B6,2.01
4,B7,1.46
5,B8,0.63
6,B9,8.70
7,B10,3.47
8,B11,2.13
9,B12,24.77

# Same assay, conditions: single mutation to alanine, sheet sortedByGroup, r_group FAMILYVW; ref SKEMPI; cited from earlier work
row,Molecule,sk_ddG_kJ (SKEMPI experimental ΔΔG) [kJ]
1,B18,0.38
2,B19,13.64
3,B20,4.31
4,B21,3.43
5,B22,4.85
6,B23,6.19
7,B24,2.80

# Same assay, conditions: single mutation to alanine; PPI given by PDBID; sheet sortedByGroup, r_group DERKH; ref SKEMPI; cited from earlier work
row,Molecule,"sk_ddG_kJ (SKEMPI experimental ΔΔG, mutation to alanine) [kJ]"
1,B13,0.75
